Experimental data as given in patent US20240026407A1, “MODIFICATION OF SAPONINS” (GLAXOSMITHKLINE BIOLOGICALS SA, priority 2020, published 2024).

B1: 1024 (protein)
chain: MKRTLLLTFLLLSVSALCFSQKLVEVAKGYSCTSVNTTIFRNNSLVTHGDEQYISYYDADGYLVLGKRKLNSKQWTLHRTQYRGNVKDAHNIISIMVDGEGYLHVSFDHHGHKLNYCRSIAPGSLELGDKMPMTGVDEGNVTYPEFYPLTDGDLLFVYRSGSSGRGNLVMNRYSLKDHKWARVQDVLIDGEDKRNAYWQLYVDEKGTIHLSWVWRETWQVETNHDLCYARSFDNGVTWYKSDGEQYKLPITASNAEYACRIPQNSELINQTSMSADAGGNPYIATYWRSSDSEVPQYRIVWNDGKTWHNRQVTDRKTPFTLKGGGTKMIPVARPRIVVEDGEIFYIFRDEERGSRVSMAHTADVANGKWIVTDLTDFSVDAWEPSHDTELWKKQRKLNLFVQHTCQGDGERTAEIEPQMIYVLEANTNTKK
modifications: Bacteroides thetaiotaomicron
B2: 1011 (protein, listed as Paenibacillus sp.)
chain: MQSNTAVLLKGGDAVYMKVKGDTDNMAAKDWGDWSARWIWLQEEQGNADKDARHERVYFRRVFELPAGTGKAYSLNMAITGDSRYRLFVNGQRQWAGPCKGHEHVQYYEEFNLEGILQPGINVIAVTVVHYAGTAPFEMGEDGPLSVWRSEQGGLLVEAEITADGQLVQELPTDTSWKAIRDLSYRLRPFPMMRWMGGLEEAAGDTALRDWTLPEYDDSAWSAARIVQPVRDDYGQLTPWQLERRPVPLLYEQEQCFWKLMRSSCGEGKALFTAGHRLELRDGASSTVPSIAGPAAEGVLVQAGQQLWLELDAGELTTGYLQLKLQGGGGSLITLQYAECYEEETGDEEVRRKAVRDEMREQVLRGGYDSYRPAGYGTEDQPEVYEPFWFRTFRYVRLEVHAGHEPLRITGINYRETGYPLQLQGSFHCSDERYNRLWELSVRTLSRCMHETYEDTPYYEQLQYTMDTRLMMEFTYLLSGDDRLARRAMEDYRASQLPNGMLQSRYPSVLPQVIPSFSLYWIGMIHDHYRVFRDLTLVKHYRTAMLSVLDWFDQRLTPEGLVDRTPRQYWNYYDWVEEWPLGAPDCTNEAPATLMSLMYAFALGQAAELLEASGWTQIAAELRQRKAAVNAAVLDNCRQADGPLFRDSPEAGPEVQLSQHTQVWAVLAGTVSAAEGEALLQTVLTDTSMAKLSLPMSYYLFRALELSGMYDRSYGLWTRWMKQLELGLTTLPEIDSADTRSDCHAWSALPITEFTRGILGVRQDIDGIILQPHCGDLQYASGAVSTEQGLITVSWEITTEEGVEVFRLEAVWTPGSAITVILPNGEVQKSDTGRIEIDIRGFNC
B3: 998 (protein)
chain: MLSIALAAALAAGAVAPDWHDGLDWHGVHVAISRDAQQGYTLAWPYGQRTIAAQPLATQTASPLFDGLFAMAQDDLKQDSVSAIRDGAFDHGQPIPCQCFETGLKWPYVWTRDLSYAIDLGLWRFDPARSRNGLKFKLSGVRVASAPQGPAPKRLYPMQDTGSGGSWPISTDRVVWFLGARHLLDDQAFADDVYRALDATLAQDRQYAFDAGFGLYRGETSFLDWREQSYPAWTADEVTFIAQSYALSTNVLHYQALQLAANLADTHHDAKAAAGYRADAAALKAAINAHFWRAERGMYMSYLSGDGTPYDSYDLLGIALAIDSGVAGGERAKQALANYPTWPAGSPVIWPERADQPIYHNRAIWPFVSAYALRAARLTEQPARIAHEIESVLRGAALYGSNMENYELLTQGQHVDEGKLSGPVVNSPRQLWSVAAALAVVTEGVFGLNEDGSVEPKLPTALVPMLFGQRRTITLDLHERQITLQLPEKISGNLLVADRTRTQGTATTVTLKAVQVPDAPLRTDAPLYAPLAPAAPVVQAAGNGWRVSAEGKVRLYLNGRAHGDIDGTATLPRQPGLTCFSATRVDAHGLESLHSPDTCVGETAKVNGSWPRRWTAPATGRYRVALDYANDHGPINTGITAAVKMLEVSCAGSDPQRLPIVMPHSVRAQRSTWGTFTAQAGSACRFALDDGFNMSYLAHFAHYTANNGSGGNGGSSGPLNQAEVHALLIAPLAADRGTP
modifications: Rhodanobacter denitrificans
B4: 1043 (protein, listed as Flavobacterium johnsoniae)
chain: MKLSLKTFFYTMLLFSFFHAFSQEKLVSPWPESSNINQPWARWWWMGSAVDKPNLKRSLIDFHKAGIGGVEITPIYGVKGEENNFIDYLSPKWMEMLDYTIHVSDSLKMQVDMVLGTGWPYGGSHVTLPHAATKLIVEKYTVKKNETFDRDITVDSSKEKTPASLLYVVAYGNDGSFVNLTNELQNKKVNVKDKGLEGSNIKLPNKLEPNKLNWKAKKADYTIYAVFSGKTGQQVKRAAPGGKGYTLDHYSEEALKAYVIPFNEALKGREGKIRAVFNDSFEVYGTDFTPNFFEEFQKLRGYDLKKQLPVLLNETDNEIGNRIRSDYRQTISDLLLNKFDKFWTNWAHSKNFKTKLQAHGSPGNLIDLYASADIPECETFGSMPFDIPGFRRDKEDIREGDADPVMLKFSSSAAHISGKNLVSSETFTWLREHFKTALSQCKPEAEDLMLNGVNHIFLHGSTYSPDRAVWPGWQFYASVNFNSNNTIWEDAPALFSYISNCQSLLQQGKPDNEILLYWPIFDAWDKYEKGTLFYQFKIHSLSDWLYGTSFYDTTKNLMKKGYSVDFISDNFIAEAKVVNGNIVLPGGNFKSLVIPSCKKMPVETLQKLIELKKAGACILFEGLPESVPGFKDYKKQEQNLKNLLAENKIQAVSNIFTSLEDAKILPESLVNTGLKSIRRDINGEKIYYLVNHTAKTIDDFIPLQVENKEIILLDPLTHESGNAIVNKKDKITYVKIKIEPGQSYFLKTENTASQKKWNYFESASEPIALKGNWKLSFDKGGPKLPADAVVSNLESWTKLSPDAEAFSGSAAYTLQFENPNPKIENWSLNLGDVRESAKVWLNDEFIGTAWSVPYKLNIQKLKPGKNVLKIQVTNLPANRIRDMELKGQEWKIFHEINMVDKDYKKFDATKWIPMPSGLLGPVTLTALKQEN
B5: 1058 (protein, listed as Cyclobacterium marinum)
chain: MKLTTYYFCLIAGLCSLFTFGLHAQESAIYKQMRQNFQQPPNTAKPTVYHWWLGGDVDTVRLKEEILSFDKAGIAGFTIFEIGSRDTVFVGAGPEFLGEASLETIKVAVEEAGKYGMEVGLNTASSWNAGGNWLTPKHAAKSIYQRKVNVSGGGKEKIKLPFPDIPEKDPRGRKRLISYGKDGKPVYSEEIAVLAIPLVGENAAIDTSLIKDVSIYFDANKEVLNWDVPEGDWKIVRYVSSNSGENLVLPSKYSAGPIVDHFDADATAFHFNYIIDRLESKLGDLRKTSLKNLYMASYEARGFNWTPTLPQEFQELNGYDIKKFLPILFGEVSLSQEATAAFRAGFQRTLSELMIKNFYMKSKEICNAHGLKNNSEAGGPGYPLHDVPVEPLKALGKGLDIPRGEFWINHHNFSEEGMDVLRVVKEVSSASNIYGVGMVEMEAFTTFQQWQEGPYEMKPMGDRAFAEGMNRVVVHGSTHNPKGTGNPGIVYHAGTHYNDKRVWWKKVRPFNDYLARISYVLQEADFQSDVLYYYGDTIPNYGGHKRSRFNPGEGYDFELLNTEILFGLEVKNGKIINPRNGAEFKVLALTKEHEINPKVLSKLEQMASSGAIITGPKPNRIAPERNMKELPNMNGWLDNLWKPFSKQSFKPGSKAIYYNVSVGEILKALELSPDFSYKGNGFYTLDYTHYQKGDMDFYFIVNTTGEWLSRDLIFRQEGKVPELWNPENGNISPIPIYKETEEGISLPLSLAPHESAFVVFKPGIKPVHFTKIAHGGIHPPKVRYSDQGIEFWEEGEFGLGHGEDTLILNNFPNVKSLEGAWEIYFPEGWGAPDKAIFPELKSWTESENEGIKYFSGTARYEKKFIHEMHASEYPEAKIYLDLGDLSHVAEVWLNDKPLGITWSKPYRFDVTEAIKPGINTLKIEVANTWSNRLTGDAITGKDYTQTHVNNTVIKGMPNFRVTWENAPLIPSGILGPVTLTTVLPIAMPK

Assays:
Assay type in all cases: biochemical, Quillaja saponaria
[1] = Experiment 6-1: screening of rhamnosidases for derhamnosylation of saponins in treated bark extract (2%), desglucosyl-QS-17 2134 to QS-21 1988 (PAR %); conditions: TBE 2%, pH 7.5, 30 degC, 18 h; TIC peak area ratio percent, LCMS/MS; negative controls 2.719, 2.158
[2] = Experiment 6-1: screening of rhamnosidases for derhamnosylation of saponins in treated bark extract (2%), QS-17 2310 to QS-18 2164 (PAR %); conditions: TBE 2%, pH 7.5, 30 degC, 18 h; TIC peak area ratio percent, LCMS/MS; negative controls 3.061, 2.429
[3] = Experiment 6-1: screening of rhamnosidases for derhamnosylation of saponins in treated bark extract (2%), QS-17 2296 to QS-18 2150 (PAR %); conditions: TBE 2%, pH 7.5, 30 degC, 18 h; TIC peak area ratio percent of rhamnosylated starting saponin to derhamnosylated product, LCMS/MS; negative controls 4.876, 5.225
[4] = Experiment 6-1: specificity of rhamnosidases towards other rhamnose residues (C3 saccharide rhamnose, C28 saccharide rhamnose); conditions: TBE 2%, pH 7.5, 30 degC, 18 h; LCMS/MS; negative controls 0.18, 0.17

Row | Molecule | Peak75 (PAR %) [1] | Peak57 (PAR %) [2] | QS-17 (PAR %) [3] | ratio PP/QS-21 [4]
1 | B1 | 2.806% | 2.924% | 5.145% | 0.17
2 | B2 | 2.854% | 3.124% | 5.089% | 0.19
3 | B3 | 2.402% | 3.326% | 5.111% | 0.15
4 | B4 | 2.791% | 3.119% | 5.098% | 0.15
5 | B5 | 2.398% | 3.144% | 5.121% | 0.17
